Source: US9533055 (ARMAGEN TECHNOLOGIES, dated 2017)

Target: T1, HIR extracellular domain (ECD) (human, UniProt P06213 28-956, limits assumed)
T1 construct: extracellular domain; also called HIR ECD; human insulin receptor ECD
Assay: ELISA, plated HIR ECD, biotinylated goat anti-human IgG detection
Procedure: The affinity of the fusion protein for the HIR extracellular domain (ECD) was determined with an ELISA using the lectin affinity purified HIR ECD. CHO cells permanently transfected with the HIR ECD were grown in serum free media (SFM), and the HIR ECD was purified with a wheat germ agglutinin affinity column. The HIR ECD (0.2 μg/well) was plated on Immulon 2 high binding 96-well plates, and the binding of the chimeric HIRMAb, the HIRMAb-TNFR fusion protein, or human IgG1 to the HIR ECD was detected with a biotinylated goat anti-human IgG (H+L) antibody (0.3 μg/well), and the avidin biotinylated peroxidase detection system.

EC50: 0.44 nM
B1: chimeric HIRMAb (antibody, V domains shown)
VH: QVQLQQSGPELVKPGALVKISCKASGYTFTNYDIHWVKQRPGQGLEWIGWIYPGDGSTKYNEKFKGKATLTADKSSSTAYMHLSSLTSEKSAVYFCAREWAYWGQGTLVTVSA
VL: DIQMTQSPSSLSASLGERVSLTCRASQDIGGNLYWLQQGPDGTIKRLIYATSSLDSGVPKRFSGSRSGSDYSLTISSLESEDFVDYYCLQYSSSPWTFGGGTKMEIKR
notes: Human IgG1/kappa constant regions; also called MAb to HIR
